# From patent publication US7244430 (CRUCELL HOLLAND B V, dated 2007)
# T1: recombinantly expressed purified soluble WNV E protein (strain 382-99) (West Nile virus strain 382-99, UniProt Q9Q6P4 291-696)
# T1 construct: also called recombinant WNV-E protein; truncated E protein; not shown: Myc tag and His tag
# T1 sequence: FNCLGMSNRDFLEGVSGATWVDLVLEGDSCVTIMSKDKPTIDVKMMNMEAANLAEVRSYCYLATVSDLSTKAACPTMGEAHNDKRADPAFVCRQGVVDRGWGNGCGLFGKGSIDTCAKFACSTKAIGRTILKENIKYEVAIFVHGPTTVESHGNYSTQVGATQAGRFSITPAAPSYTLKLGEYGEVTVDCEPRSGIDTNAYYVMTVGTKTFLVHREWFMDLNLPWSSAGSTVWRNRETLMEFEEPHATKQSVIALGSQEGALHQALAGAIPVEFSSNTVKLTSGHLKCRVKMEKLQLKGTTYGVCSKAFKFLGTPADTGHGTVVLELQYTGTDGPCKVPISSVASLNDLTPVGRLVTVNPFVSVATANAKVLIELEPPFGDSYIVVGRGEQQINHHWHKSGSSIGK
# How the values were obtained:
# [1] = target: T2, West Nile virus strain USA99b (strain 385-99) (West Nile virus strain 385-99 (USA99b)); assay: phage ELISA, coated whole inactivated WNV
# T2 construct: mature; also called WNV; WN virus
# [2] = target: T1, recombinantly expressed purified …; assay: phage ELISA, coated recombinant soluble WNV E protein
# [3] = target: T3, WNV-like particles (wild-type VLP, strain 382-99 M and E proteins) (West Nile virus strain 382-99, UniProt Q9Q6P4 291-791; Q9Q6P4 216-290); assay: titration of purified IgM on VLPs
# T3 construct: also called West Nile virus-like particles; WT
# [4] = target: T4, mutant WNV-like particles K307E (West Nile virus strain 382-99, UniProt Q9Q6P4 291-791; Q9Q6P4 216-290); assay: ELISA on mutant VLP
# T4 construct: also called mutant K307E
# [5] = target: T5, mutant WNV-like particles T332K (West Nile virus strain 382-99, UniProt Q9Q6P4 291-791; Q9Q6P4 216-290); assay: ELISA on mutant VLP, normalized to wild-type VLP
# T5 construct: also called mutant T332K
# [6] = target: T1, recombinantly expressed purified …; assay: phage ELISA, coated recombinant soluble WNV E protein; remark: listed apart in the source
# [7] = target: T6, mutant WNV-like particles A365V (West Nile virus strain 382-99, UniProt Q9Q6P4 291-791; Q9Q6P4 216-290); assay: ELISA on mutant VLP, normalized to wild-type VLP
# T6 construct: also called mutant A365V
Binder,OD 492 nm [1],OD 492 nm [2],also measured
SC04-311 (scFv) scFv: EVQLVQSGGGVVQPGRSLRLSCVASGFTFSKDAMHWVRQAPGKGLEWVAVISYDGSDKHYADSVKGRVTISRDNSRKTLYLRMDSLRAEDTALYYCARGYNSGHYFDYWGQGTLITVSSGTGGSGGTGSGTGGSTQSVLTQPPSVSAAPGQKVTISCSGTSSNIGDNYVSWYQHLPGTAPKLLIYDNNKRPSGIPDRFSGSKSGTSATLGVTGLQTGDEADYYCGTWDSSLTAVVFGGGTKLTVLG,1.04 OD 492 nm,1.54 OD 492 nm,
"CRM4374 (antibody, also called IgM form of CR4374) heavy: QITLKESGPTLVKPTQTLTLTCTFSGFSLSTSGVGVGWIRQPPGKALEWLAVIYWNDDKLYRPSLKSRLTITKDTSKNQVVLTMTKMDPVDTATYYCAHRHRYYDISGYYRLFSDAFDIWGQGTMVTVSSASAPTLFPLVSCENSPSDTSSVAVGCLAQDFLPDSITFSWKYKNNSDISSTRGFPSVLRGGKYAATSQVLLPSKDVMQGTDEHVVCKVQHPNGNKEKNVPLPVIAELPPKVSVFVPPRDGFFGNPRKSKLICQATGFSPRQIQVSWLREGKQVGSGVTTDQVQAEAKESGPTTYKVTSTLTIKESDWLSQSMFTCRVDHRGLTFQQNASSMCVPDQDTAIRVFAIPPSFASIFLTKSTKLTCLVTDLTTYDSVTISWTRQNGEAVKTHTNISESHPNATFSAVGEASICEDDWNSGERFTCTVTHTDLPSPLKQTISRPKGVALHRPDVYLLPPAREQLNLRESATITCLVTGFSPADVFVQWMQRGQPLSPEKYVTSAPMPEPQAPGRYFAHSILTVSEEEWNTGETYTCVVAHEALPNRVTERTVDKSTGKPTLYNVSLVMSDTAGTCY light: QSVLTQPPSVSGAPGQRVTISCTGSSSNIGAGYDVHWYQQLPGTAPKLLIYGNSNRPSGVPDRFSGSKSGTSASLAITGLQAEDEADYYCQSYDSSLSGSVFGGGTKLTVLGQPKAAPSVTLFPPSSEELQANKATLVCLISDFYPGAVTVAWKADSSPVKAGVETTTPSKQSNNKYAASSYLSLTPEQWKSHRSYSCQVTHEGSTVEKTVAPTECS",,,binding result [3]: binds
"CR4374 (antibody, also called CR374) heavy: not shown light: QSVLTQPPSVSGAPGQRVTISCTGSSSNIGAGYDVHWYQQLPGTAPKLLIYGNSNRPSGVPDRFSGSKSGTSASLAITGLQAEDEADYYCQSYDSSLSGSVFGGGTKLTVLGQPKAAPSVTLFPPSSEELQANKATLVCLISDFYPGAVTVAWKADSSPVKAGVETTTPSKQSNNKYAASSYLSLTPEQWKSHRSYSCQVTHEGSTVEKTVAPTECS",,,binding result [4]: no binding; % of wild-type binding [5]: ~75%
SC04-353 (scFv) scFv: EVQLVQSGGGVVQPGRSLRLSCAASGFTFSNYAMHWVRQAPGKGLEWVAVISYDGGNKYYADSVKGRFTMSRDNSKNTLYLQMNSLRAEDTAVYYCARDFWSGYSMVDSYYYYMDVWGKGTTVTVSSGTGGSGGTGSGTGGSTETTLTQSPGTLSLSPGERATLSCRASQSVSNTFLAWYQQKPGQAPRLLIYGASSRATGIPDRFSGSGSGTDFTLTISRLEPEDFAAYYCQQYGSSLTFGPGTKVDIKR,,0.099 OD 492 nm,binding result [6]: no binding
SC04-271 (scFv) scFv: EVQLVETGAEVKKPGESLRISCKGSGYTFNNYWIGWVRQMPGKGLEWMGIIYPGDSDTRYSPSVQGHVTISADKSINTAYLQWSSLKASDTAVYYCARRPGYDYGFYYFDYWGQGTLVTVSSGTGGSGGTGSGTGGSTQSALTQPRSVSGSPGQSVTISCTGTSSDVGGYNYVSWYQHHPGKAPKLMIYDVSNRPLGVSNRFSGSKSGNTASLTISGLQAEDEADYYCSSYTSSSTYVFGTGTHLTVLS,0.984 OD 492 nm,0.608 OD 492 nm,
SC04-361 (scFv) scFv: EVQLVQSGAEVKKPGESLKISCKASGFSFSTYWIGWVRQMPGKGLEWMGIIYPADSDTRYSPSFQGQVTISADKSISTAYLQWSSLKASDTAMYYCARLRGPYYDFWNGYRETHDAFNVWGQGTMVTVSSGTGGSGGTGSGTGGSTDVVMTQSPDSLAVSLGERATINCKSSQNILDNSDNKNFLAWYQQKPGQPPKLLIYWASARESGVPDRFSGSGSGTDFTLTISSLQAEDVALYYCQQYYNTPITFGQGTRLEIKR,,0.076 OD 492 nm,binding result [6]: no binding
SC04-325 (scFv) scFv: QMQLVQSGAEVKKPGSSVKVSCKASGDTFSSYAISWVRQAPGQGLEWMGGIFGTASYAQKFQGRVTITADESTSTAYMELSSLRSEDTAVYYCARGGMATTPGLDYWGQGTLVTVSSGTGGSGGTGSGTGGSTDIQLTQSPDSLAVSLGERATINCKSSQSVLYSSNNKNYLAWYQQKPGQPPKLLIYWASTRESGVPDRFSGSGSGTDFTLTISSLQAEDVAVYYCQQYYSTPLTFGQGTKVEIKR,,1.4 OD 492 nm,
SC04-299 (scFv) scFv: EVQLVETGGGVVQPGRSLRLSCAASGFTFSGYAMHWVRQAPGKGLDWVAVISYDGSEKYSADSVKGRFTISRDNSKNTLYLQMNSLRAEDTAVYYCAKESGGPIWYKYYGVDVWGQGTTVTVSSGTGGSGGTGSGTGGSTSYVLTQPPSLSAAPRQRVTISCSGSSSNIGNYGVNWYQQLPGKAPKLLIYYDDLLPSGVSDRFSGSKSGTSASLAISGLQSEDEGDYYCAAWDDTLSAWVFGGGTKLTVLG,1.07 OD 492 nm,,
SC04-289 (scFv) scFv: QMQLVQSGAEVKKPGESLRISCKGSGYSFTSNWITWVRQMPGKGLEWMGRIDPSDSYTNYSPSFQGHVTISADKSISTAYLQWSSLKASDTAMYYCARDVVGVGASDYYYYMDVWGKGTTVTVSSGTGGSGGTGSGTGGSTEIVLTQSPGTLSLSPGETATLSCRTSQSVSSSYLGWYQQKPGQAPRLLIYGASIRATGIPARFSGSGSGTEFTLTIDSLQSEDFAVYYCQQYNNWPPITFGQGTRLEIKR,0.759 OD 492 nm,1.39 OD 492 nm,
SC04-374 (scFv) scFv: QVTLKESGPTLVKPTQTLTLTCTFSGFSLSTSGVGVGWIRQPPGKALEWLAVIYWNDDKLYRPSLKSRLTITKDTSKNQVVLTMTKMDPVDTATYYCAHRHRYYDISGYYRLFSDAFDIWGQGTMVTVSSGTGGSGGTGSGTGGSTQSVVTQPPSVSGAPGQRVTISCTGSSSNIGAGYDVHWYQQLPGTAPKLLIYGNSNRPSGVPDRFSGSKSGTSASLAITGLQAEDEADYYCQSYDSSLSGSVFGGGTKLTVLG,,1.36 OD 492 nm,
"CR5080 (antibody, V domains shown) VH: QVTLKESGPTLVKPTQTLTLTCTFSGFSLSTSGVGVGWIRQPPGKALEWLAVIYWNDDKLYRPSLKSRLTITKDTSKNQVVLTMTKMDPVDTATYYCAHRHRYYDISGYYRLFSDAFDIWGQGTMVTVSS VL: QSVLTQPPSVSGAPGQRVTISCTGSSSNIGAGYDVHWYQQLPGTAPKLLIYGNSNRPSGVPDRFSGSKSGTSASLAITGLQAEDEADYYCQSYDSSLSGWAFGGGTKLTVLG",,,binding result [4]: no binding; % of wild-type binding [7]: ~37%
SC04-283 (scFv) scFv: EVQLVQSGAEVKKSGESLKISCKGSGYTFNTYWIGWVRQMPGKGLEWMGIIYPGDSDTIYSPSFQGQVTISADKSISTAYLQWSSLKASDSAMYYCARLTFRRGYSGSDSFLPPGDFDYWGQGTLVTVSSGTGGSGGTGSGTGGSTDIQMTQSPSTLSASVGDRVTITCRASQSISSWLAWYQQKPGKAPNLLIYAASSLQSGVPSRFSGSGSGTDFTLTISSLQPDDSATYYCQQYNTYPLTFGGGTKVEIKR,1.21 OD 492 nm,0.074 OD 492 nm,
